In one assay the target is FOXA1-Venus (UniProt P55317). Put plainly: FRET or BRET.
A further assay deals with T1, ESR1-Cerulean, P03372.
T1 chain: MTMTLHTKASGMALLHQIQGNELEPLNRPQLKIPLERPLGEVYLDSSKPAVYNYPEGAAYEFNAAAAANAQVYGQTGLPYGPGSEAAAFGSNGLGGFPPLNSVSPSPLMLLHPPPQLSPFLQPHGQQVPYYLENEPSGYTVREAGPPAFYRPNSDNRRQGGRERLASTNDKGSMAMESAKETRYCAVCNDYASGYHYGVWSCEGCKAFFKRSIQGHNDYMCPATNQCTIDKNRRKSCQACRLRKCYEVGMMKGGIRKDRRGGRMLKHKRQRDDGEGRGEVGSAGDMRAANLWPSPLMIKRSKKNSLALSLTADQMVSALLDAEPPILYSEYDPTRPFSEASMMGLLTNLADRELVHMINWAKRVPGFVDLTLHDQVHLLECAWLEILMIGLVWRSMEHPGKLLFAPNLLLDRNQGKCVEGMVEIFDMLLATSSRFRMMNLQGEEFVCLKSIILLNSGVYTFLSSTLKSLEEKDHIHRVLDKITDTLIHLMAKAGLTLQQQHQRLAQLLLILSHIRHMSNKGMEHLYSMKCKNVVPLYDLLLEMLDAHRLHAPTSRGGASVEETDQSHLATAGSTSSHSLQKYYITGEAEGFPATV
Put plainly: FRET or BRET. The note with it: remark: other sources report otherwise.

In the assay with FOXA1-Venus, “NFIB-Cerulean (from UniProt O00712 1-420) (natural protein)” returned an FRET efficiency of 0.055.

B1: FOXA1-Venus, P55317 1-472 (natural protein)
chain: MLGTVKMEGHETSDWNSYYADTQEAYSSVPVSNMNSGLGSMNSMNTYMTMNTMTTSGNMTPASFNMSYANPGLGAGLSPGAVAGMPGGSAGAMNSMTAAGVTAMGTALSPSGMGAMGAQQAASMNGLGPYAAAMNPCMSPMAYAPSNLGRSRAGGGGDAKTFKRSYPHAKPPYSYISLITMAIQQAPSKMLTLSEIYQWIMDLFPYYRQNQQRWQNSIRHSLSFNDCFVKVARSPDKPGKGSYWTLHPDSGNMFENGCYLRRQKRFKCEKQPGAGGGGGSGSGGSGAKGGPESRKDPSGASNPSADSPLHRGVHGKTGQLEGAPAPGPAASPQTLDHSGATATGGASELKTPASSTAPPISSGPGALASVPASHPAHGLAPHESQLHLKGDPHYSFNHPFSINNLMSSSEQQHKLDFKAYEQALQYSPYGSTLPASLPLGSASVTTRSPIEPSALEPAYYQGVYSRPVLNTS
B1 came in with an FRET efficiency with ESR1-Cerulean, P03372 of 0.139.
